Assay results published in article PMC3672139.

Molecular target: T1, RB1 (human) (UniProt P06400)
T1 sequence: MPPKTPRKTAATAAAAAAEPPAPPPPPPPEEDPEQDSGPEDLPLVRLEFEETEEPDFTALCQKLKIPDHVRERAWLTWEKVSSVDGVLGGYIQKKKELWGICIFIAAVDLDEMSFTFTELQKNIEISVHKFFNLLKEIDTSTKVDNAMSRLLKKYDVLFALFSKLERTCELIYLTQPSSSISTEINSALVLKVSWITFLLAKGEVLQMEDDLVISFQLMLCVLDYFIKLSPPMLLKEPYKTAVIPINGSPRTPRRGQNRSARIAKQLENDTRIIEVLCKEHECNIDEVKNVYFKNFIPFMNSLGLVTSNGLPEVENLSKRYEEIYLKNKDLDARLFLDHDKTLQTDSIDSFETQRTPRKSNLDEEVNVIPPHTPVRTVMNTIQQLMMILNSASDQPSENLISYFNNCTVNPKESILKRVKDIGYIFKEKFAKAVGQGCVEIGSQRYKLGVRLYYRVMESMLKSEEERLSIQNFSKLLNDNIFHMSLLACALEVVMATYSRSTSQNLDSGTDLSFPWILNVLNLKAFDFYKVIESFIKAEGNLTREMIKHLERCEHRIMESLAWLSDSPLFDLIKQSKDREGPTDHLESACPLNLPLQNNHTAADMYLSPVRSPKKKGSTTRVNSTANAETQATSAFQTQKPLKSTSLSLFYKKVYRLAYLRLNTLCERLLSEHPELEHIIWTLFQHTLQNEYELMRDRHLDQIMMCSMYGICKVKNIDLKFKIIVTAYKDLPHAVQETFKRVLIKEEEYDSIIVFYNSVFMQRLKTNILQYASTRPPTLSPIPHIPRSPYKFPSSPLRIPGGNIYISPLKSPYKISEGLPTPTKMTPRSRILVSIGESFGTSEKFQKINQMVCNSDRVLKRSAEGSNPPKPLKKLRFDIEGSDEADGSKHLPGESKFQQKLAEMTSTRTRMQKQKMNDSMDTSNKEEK
Assay: SPR
Conditions: DNA immobilized; 650 mM NaCl; 10 mM Tris-HCl, 150 mM NaCl, 5 mM KCl, pH 7.4; EMSA room temperature 30 min, 12% PAGE in TBE; SPR 25 C (RB1 SPR with 650 mM NaCl)

How did the Kd turn out when CGGGGGGTTTTGGGCGGC [RB1 G4] was run?
Its Kd is 0.44 µM.
